Experiments:
[1] = target: T1, recombinant human EpCAM (rhEpCAM) (human, UniProt P16422 24-265); test: sandwich ELISA: rhEpCAM coated on plate, detection with peroxidase-conjugated protein L
T1 construct: Bought recombinant protein coated on the ELISA plate
T1 sequence (looked up): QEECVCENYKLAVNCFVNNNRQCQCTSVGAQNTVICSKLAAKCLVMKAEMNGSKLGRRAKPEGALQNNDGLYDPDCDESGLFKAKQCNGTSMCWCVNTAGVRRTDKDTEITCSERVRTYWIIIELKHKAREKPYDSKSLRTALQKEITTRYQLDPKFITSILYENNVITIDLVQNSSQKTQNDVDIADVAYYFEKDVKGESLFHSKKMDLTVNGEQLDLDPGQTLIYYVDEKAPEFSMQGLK
Experimental: The binding capability of anti-EpCAM×anti-CD3 ProTIA composition was verified with an EpCAM/peroxidase-conjugated protein-L sandwich ELISA. In the ELISA binding assay, recombinant human EpCAM (rhEpCAM) (Sino BiologicalR&D Systems cat #10694-H08H960-EP-50) was coated on a 96-well, flat-bottomed plate at a concentration of 0.1 microg/100 microL. After overnight incubation at 4° C., the assay plate was washed and blocked with 3% bovine serum albumin (BSA) for 1 h at room temperature. The plate was washed again followed by the introduction of a dose range of non-cleavable anti-EpCAM×anti-CD3 ProTIA (i.e., a ProTIA without the release segment cleavage sequence and AC1484, a ProTIA chimeric polypeptide assembly composition) and protease-treated and protease-untreated anti-EpCAM×anti-CD3 ProTIA (e.g. AC1476). The dose range utilized for non-cleavable and protease-treated and untreated ProTIA was 0.0006 to 5 nM, achieved with a 1:6 fold serial dilution scheme from a starting concentration of 5 nM. The plate was allowed to incubate with shaking for 1 h at room temperature to allow the non-cleavable, protease-cleaved and uncleaved ProTIA to bind to the rhEpCAM coated on the plate. Unbound components were removed with a wash step and a peroxidase-conjugated protein L (PierceThermoFisher Scientific cat #32420) was added. After an appropriate incubation period that allowed protein-L to bind to the kappa light of the scFvs, any unbound reagent was removed by a wash step followed by the addition of tetramethylbenzidine (TMB) substrate to each well. TMB is a chromogenic substrate of peroxidase. After desired color intensity was reached, 0.2 N sulfuric acid was added to stop the reaction and absorbance (OD) was measured at 450 nm using a spectrophotometer. The intensity of the color is proportional to the concentration of non-cleavable, protease-treated and untreated anti-EpCAM×anti-CD3 ProTIA captured by the rhEpCAM/protein-L sandwich ELISA. The intensity of the color produced (measured OD) was plotted against protein concentration; and the concentration of non-cleavable, protease-cleaved and uncleaved anti-EpCAM×anti-CD3 ProTIA that gave half-maximal response (EC₅₀) was derived with a 4-parameter logistic regression equation using GraphPad prism software.

[2] = target: human CD3 on purified human CD3 positive T cells (human, UniProt P07766 23-207); test: cell-based or functional assay
[3] = target: T2, human EpCAM on EpCAM positive human carcinoma cells (SW480, SK-OV-3) (human, UniProt P16422 24-314); test: cell-based or functional assay
T2 sequence (looked up): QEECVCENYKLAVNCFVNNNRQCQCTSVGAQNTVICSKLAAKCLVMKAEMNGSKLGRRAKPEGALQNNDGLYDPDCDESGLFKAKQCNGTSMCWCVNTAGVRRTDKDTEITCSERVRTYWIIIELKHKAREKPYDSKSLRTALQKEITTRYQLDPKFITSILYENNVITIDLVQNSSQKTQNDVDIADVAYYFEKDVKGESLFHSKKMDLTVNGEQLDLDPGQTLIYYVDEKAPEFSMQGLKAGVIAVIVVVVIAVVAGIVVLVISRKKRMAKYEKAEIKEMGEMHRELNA

[4] = target: T1, recombinant human EpCAM (rhEpCAM); test: sandwich ELISA: rhEpCAM coated on plate, detection with biotin-conjugated protein L
Experimental: (§1) The binding specificity of an anti-EpCAM×anti-CD3 ProTIA (e.g. AC1476) was evaluated in conjunction with the control ProTIA compositions anti-CEA×anti-CD3 ProTIA (e.g. AC1432) and anti-HER2×anti-CD3 ProTIA (e.g. AC1408), in a target antigen/biotin-conjugated protein-L sandwich ELISA. Both the anti-CEA×anti-CD3 ProTIA (AC1432) and the anti-HER2×anti-CD3 ProTIA (AC1408) bear the same anti-CD3 scFv component as the anti-EpCAM×anti-CD3 ProTIA (AC1476) albeit with different targeting component. In the ELISA binding assay, recombinant human EpCAM (rhEpCAM) (R&D Systems cat #960-EP-50), recombinant human CEA (Abcam cat #ab742) and recombinant human HER2 (AcroBiosystems cat #HE2-H525) were coated on a 96-well, flat-bottomed plate at a concentration of 0.1 microg/100 microL. After overnight incubation at 4° C., the assay plate was washed and blocked with 3% bovine serum albumin (BSA) for 1 h at room temperature. The plate was washed again followed by the introduction of a dose range (0.0007 to 0.5 nM, achieved with a 1:3 fold serial dilution scheme from a starting concentration of 0.5 nM) of protease-treated anti-EpCAM×anti-CD3 ProTIA (e.g. AC1476) to EpCAM-coated wells, CEA-coated wells and HER2-coated wells. […] After desired color intensity was reached, 0.2 N sulfuric acid was added to stop the reaction and absorbance (OD) was measured at 450 nm using a spectrophotometer. […]

recombinant human CEA = target: T3, recombinant human CEA (human, UniProt P06731 35-685, limits assumed); test: sandwich ELISA: antigen coated on plate, detection with biotin-conjugated protein L
T3 construct: Coated on the ELISA plate; also called CEA antigen
T3 sequence (looked up): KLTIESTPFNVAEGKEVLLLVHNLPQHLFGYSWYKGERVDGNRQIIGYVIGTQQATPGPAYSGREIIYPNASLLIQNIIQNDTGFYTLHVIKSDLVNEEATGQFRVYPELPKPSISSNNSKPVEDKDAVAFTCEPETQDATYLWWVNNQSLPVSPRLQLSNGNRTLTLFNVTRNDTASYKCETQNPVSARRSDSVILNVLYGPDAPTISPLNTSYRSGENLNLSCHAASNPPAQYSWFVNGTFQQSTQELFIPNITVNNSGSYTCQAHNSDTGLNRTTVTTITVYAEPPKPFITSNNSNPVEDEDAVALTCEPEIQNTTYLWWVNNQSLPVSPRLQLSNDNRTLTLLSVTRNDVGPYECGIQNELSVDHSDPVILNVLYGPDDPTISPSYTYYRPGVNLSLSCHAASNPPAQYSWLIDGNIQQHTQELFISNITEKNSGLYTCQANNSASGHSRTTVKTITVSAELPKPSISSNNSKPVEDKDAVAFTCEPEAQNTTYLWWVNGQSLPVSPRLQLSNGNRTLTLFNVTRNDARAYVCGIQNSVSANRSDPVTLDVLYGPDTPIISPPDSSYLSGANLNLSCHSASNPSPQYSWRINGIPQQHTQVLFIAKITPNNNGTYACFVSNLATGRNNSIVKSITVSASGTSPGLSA
Experimental: as §1

recombinant human HER2 = target: T4, recombinant human HER2 (human, UniProt P04626 23-652); test: as above
T4 construct: Coated on the ELISA plate; also called HER2 antigen
Experimental: as §1

[5] = target: T5, recombinant human CD3 (rhCD3εδ) (human, UniProt P07766 23-126; P04234 22-105); test: sandwich ELISA: rhCD3εδ coated on plate, detection with peroxidase-conjugated protein L
T5 chain: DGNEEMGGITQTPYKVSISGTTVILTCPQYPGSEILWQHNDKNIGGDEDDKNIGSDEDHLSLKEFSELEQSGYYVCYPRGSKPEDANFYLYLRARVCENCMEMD

B1: Protease-treated (MMP-9 cleaved) AC1476 anti-EpCAM×anti-CD3 ProTIA, released aEpCAM-aCD3 first portion (bispecific antibody)
chain: DIQMTQSPSSLSASVGDRVTITCRSTKSLLHSNGITYLYWYQQKPGKAPKLLIYQMSNLASGVPSRFSSSGSGTDFTLTISSLQPEDFATYYCAQNLEIPRTFGQGTKVEIKGATPPETGAETESPGETTGGSAESEPPGEGQVQLVQSGPGLVQPGGSVRISCAASGYTFTNYGMNWVKQAPGKGLEWMGWINTYTGESTYADSFKGRFTFSLDTSASAAYLQINSLRAEDTAVYYCARFAIKGDYWGQGTLLTVSSGGGGSDIQMTQSPSSLSASVGDRVTITCRASQDIRNYLNWYQQKPGKAPKLLIYYTSRLESGVPSRFSGSGSGTDYTLTISSLQPEDFATYYCQQGNTLPWTFGQGTKVEIKGATPPETGAETESPGETTGGSAESEPPGEGEVQLVESGGGLVQPGGSLRLSCAASGYSFTGYTMNWVRQAPGKGLEWVALINPYKGVSTYNQKFKDRFTISVDKSKNTAYLQMNSLRAEDTAVYYCARSGYYGDSDWYFDVWGQGTLVTVSSGTAEAASASGLSGRSDNHSPLG
notes: ESI-MS found 58,071 Da against a theoretical 58,067 Da; also called ProTIA-A; protease-treated anti-EpCAM×anti-CD3 ProTIA
- EC50 [1]: 0.12 nM
- EC50, LDH release cytotoxicity, purified human CD3 positive T cells:OVCAR-3 5:1 [2]: 0.0003 nM
- EC50, LDH release cytotoxicity, purified human CD3 positive T cells:SK-OV-3 5:1 [2]: 0.0024 nM
- EC50, LDH release cytotoxicity, PBMC:SK-OV-3 5:1 [3]: 0.003 nM
- EC50 [4]: 0.11 nM
- binding result (recombinant human CEA): no binding (tested: 0.0007 to 0.5 nM (dose range tested))
- binding result (recombinant human HER2): no binding (tested: 0.0007 to 0.5 nM (dose range tested))
- EC50 [5]: 0.31 nM
